Measurements published in PMC4866608 (Archives of biochemistry and biophysics, 2015).

How the values were obtained:
[1] = target: 2-hydroxymuconate semialdehyde dehydrogenase (NahI) from Pseudomonas putida G7, His-tag removed (GH-NahI) (Pseudomonas putida G7); test: dynamic light scattering
[2] = target: 2-hydroxymuconate semialdehyde dehydrogenase (NahI) from Pseudomonas putida G7, His-tag removed (GH-NahI) (Pseudomonas putida G7); test: small-angle X-ray scattering
NahI (GH-NahI) = target: T1, NahI (GH-NahI) (Pseudomonas putida, UniProt Q1XGK8); test: CD thermal denaturation at […] nm; assay type: binding; conditions: 50 mM sodium phosphate pH 7.4, 50 mM NaCl, 0.3 mg/mL protein; two-step denaturation
T1 sequence (Q1XGK8 1-486): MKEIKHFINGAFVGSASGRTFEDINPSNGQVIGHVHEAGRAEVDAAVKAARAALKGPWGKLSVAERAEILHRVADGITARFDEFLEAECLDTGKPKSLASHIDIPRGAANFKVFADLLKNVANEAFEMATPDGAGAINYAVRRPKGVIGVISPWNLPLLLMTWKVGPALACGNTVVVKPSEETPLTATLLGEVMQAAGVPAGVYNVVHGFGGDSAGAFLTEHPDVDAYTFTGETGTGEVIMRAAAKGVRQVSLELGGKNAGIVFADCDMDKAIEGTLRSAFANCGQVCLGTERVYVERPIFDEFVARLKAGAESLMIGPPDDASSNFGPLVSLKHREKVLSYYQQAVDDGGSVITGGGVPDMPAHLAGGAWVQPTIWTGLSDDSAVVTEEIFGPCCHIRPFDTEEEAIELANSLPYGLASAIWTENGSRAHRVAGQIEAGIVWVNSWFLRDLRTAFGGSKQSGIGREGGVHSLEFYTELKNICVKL

| stoichiometry N [1] | stoichiometry N [2] | second transition temperature of the NAD+ complex (apo enzyme 73.9 °C) (NahI (GH-NahI)) [°C] | Compound |
| --- | --- | --- | --- |
| 3 | 4 | – | 2-hydroxymuconate semialdehyde dehydrogenase (NahI) from Pseudomonas putida G7, His-tag removed (GH-NahI) (enzyme) |
| – | – | 76.7 | NC(=O)c1ccc[n+]([C@@H]2O[C@H](COP(=O)(O)OP(=O)(O)OC[C@H]3O[C@@H](n4cnc5c(N)ncnc54)[C@H](O)[C@@H]3O)[C@@H](O)[C@H]2O)c1 [NAD^+] |
